Reference: publication PMC2749490

Tested on: CC(C)C[C@H](NC(=O)[C@H](CO)NC(=O)[C@H](C)NC(=O)[C@H](CCCNC(=N)N)NC(=O)[C@H](CCCNC(=N)N)NC(=O)[C@@H](N)CC(C)C)C(=O)NCC(=O)O
Type: biochemical
Conditions: other: from the noncompetitive inhibition model fit; pH 7.4

Question: How did the Km turn out when PKA (Homo sapiens) was run?
Answer: The Km was 12 µM.
